Where two headings read alike, the source gives them in different places.
Experiments:
HIV-1 = experiment: Anti-HIV activity: viral core protein p24 expression in HIV-1 infected H9 T lymphocytes by RIA; assay type: cell-based
Protocol: (§1) In FIG. 3A, anti-HIV activity was assayed by HIV core protein p24 expression in H9 cells (Lee-Huang et al., 1990 and Lee-Huang et al., 1991). […] Anti-tumor activity was determined by in vitro proliferation of human breast tumor MAD-MB-231 cell by [^3H] thymidine incorporation (Lee-Huang et al., 1999) and the average control value was about 1.88×10^5 cpm/ml (FIG. 3B). In FIG. 3C, the cytotoxic effect was measured by the MTS colorimetric assay (Lee-Huang et al., 1999), and in FIG. 3D, the ribosome-inactivation activity was determined by in vitro translation of globin message in a rabbit reticulocyte lysate system (Lee-Huang et al., 1990 and Lee-Huang et al., 1991) and the average control value was about 5.8×10^4 cpm/ml. In each assay, triplicates were carried in two independent experiments, and the results are normalized to values obtained in control assays. Standard deviations are indicated by error bars.
(§2) Anti-HIV activity was determined by inhibition on the expression of viral core protein p24 expression by RIA (Lee-Huang et al., 1990; Lee-Huang et al., 1991 and Lee-Huang et al., 1999). Anti-tumor activity was determined by the effects of the peptide fragments on the growth of human breast tumor cell line MDA-MB-231 by [^3H] thymidine incorporated (Lee-Huang et al., 1999 and Rybak et al., 1994). HIV-integrase inhibition was assayed by the three specific reactions catalyzed by the integrase, namely, 3′ processing (specific cleavage of the dinucleotide GT from the viral substrate HIV-LTR U3), strand transfer (integration) and disintegration (Lee-Huang et al., 1995). Topological inactivation was measured by the conversion of supercoiled HIV-LTR DNA to relaxed and linear forms (Huang et al., 1992). Ribosome inactivation was determined by the translation of globin message in a rabbit reticulocyte lysate system (Lee-Huang et al., 1990 and Lee-Huang et al., 1991).
(§3) To analyze the structural and activity relationship of the anti-HIV proteins, each of the homogeneous proteolytic fragments was assayed for anti-HIV and anti-tumor activities. […] Anti-HIV activity was measured by viral core protein p24 expression in HIV-1 infected H9 T lymphocytes by RIA (Lee-Huang et al., 1990 and Lee-Huang et al., 1991). Anti-tumor activity was measured by proliferation of human breast tumor MDA231 cells (Lee-Huang et al., 1999 and Rybak et al., 1994). […] No significant difference in the anti-HIV and anti-tumor activities was detected between these core fragments.

[1] = test system: human breast tumor cell line MDA-MB-231; experiment: Anti-tumor activity: proliferation of MDA-MB-231 cells by [3H] thymidine incorporation; assay type: cell-based; details: MDA231 proliferation
Protocol: as §1, §2, §3

HIV-1 integrase = target: T1, HIV-1 integrase (Human immunodeficiency virus type 1 group M subtype B, UniProt P04585); experiment: HIV-integrase inhibition (3'-processing, strand transfer, disintegration); assay type: biochemical; details: strand transfer and disintegration
T1 construct: assayed by the 3′-processing reaction of HIV-1 integrase
Protocol: (§4) In FIG. 4A, the inhibition on HIV-integrase was assayed by the 3′-processing reaction of HIV-1 integrase (Lee-Huang et al., 1995). This activity was assayed by specific cleavage of the dinucleotide GT from 5′-[^32P] labeled 21-mer of the HIV-U3-LTR substrate. The effect was measured by the inhibition of the formation of labeled 19-mer product by autoradiography of urea gels. […] In FIG. 4B, topological inactivation was measured by the conversion of supercoiled HIV-LTR DNA (S) into relaxed (R) and linear (L) forms by agarose gel electrophoresis (Huang et al., 1992). Samples that cause topological inactivation show L and R and no S forms.
as §2

supercoiled HIV-LTR DNA = experiment: Topological inactivation: conversion of supercoiled HIV-LTR DNA to relaxed and linear forms; assay type: biochemical; details: supercoiled HIV-LTR into relaxed and linear forms
Protocol: as §4, §2

[2] = test system: ribosome (rabbit reticulocyte lysate system); experiment: Ribosome inactivation: translation of globin message in a rabbit reticulocyte lysate system; assay type: biochemical; details: [3H]-labelled leucine incorporation
Protocol: as §1, §2
The anti-HIV and anti-tumor fragments, MLF25, MLF21, MVF25, MVF21, GLF26, GLF22, GVF26, GVF22 are active in HIV-integrase inhibition as assayed by the 3′-processing (FIG. 4A), strand transfer and disintegration (data not shown) as well as in DNA topological inactivation as assayed by the conversion of supercoiled HIV-LTR into relaxed and linear forms (FIG. 4B). […] Moreover, the C-terminal regions of these proteins are required for N-glycosidase activity, but not for antiviral and anti-tumor activities.

[3] = test system: endoproteinase Lys-C and Glu-C (V8); experiment: Resistance to limited proteolysis with Lys-C and V8 (SDS-PAGE); details: Lys-C or V8, up to 24 hr
Protocol: MAP30 and GAP31 were subjected to proteolysis with sequencing grade endoproteinase Lys-C and Glu-C (Promega, Madison, Wis.). Lys-C cleaves at the carboxylic side of lysine (Elliott et al., 1986). Glu-C, also known as V8 protease, cleaves specifically at the carboxylic side of glutamic acid in the presence of ammonium ion (Drapeau et al., 1972). In the absence of ammonium ion, Glu-C acts at both aspartic and glutamic acids. The reaction buffers for Lys-C and V8 were 25 mM Tris-HCl, pH 7.8, 1 mM EDTA and 50 mM ammonium bicarbonate, pH 7.8 respectively.
FIGS. 1A-1D show time course SDS-PAGE patterns of Lys-C and V8 digestions of MAP30 and GAP31. Three major fragments were produced in each case. These fragments are designated MLF25, MLF21, MLF0.8 (MAP30 Lys-C Fragments of 25, 21, and 0.8 kDa, FIG. 1A), MVF25, MVF21, MVF0.8 (MAP30 V8 Fragments of 25, 21, and 0.8 kDa, FIG. 1B), GLF26, GLF22, GLF0.6 (GAP31 Lys-C Fragments of 26, 22 and 0.6 kDa, FIG. 1C), and GVF26, GVF22, GVF0.6 (GAP31 V8 Fragments of 26, 22 and 0.6 kDa, FIG. 1D). The smaller peptides are C-terminal fragments produced during proteolysis and they are sensitive to further digestion to short peptides.

GLF26: GAP31 Lys-C fragment, 25-26 kDa, residues 11-226 of SEQ ID NO:2
anti-HIV activity (HIV-1): Most of the anti-HIV and anti-tumor activity | anti-tumor activity [1]: Most of the anti-HIV and anti-tumor activity | HIV-integrase inhibition (HIV-1 integrase): active | DNA topological inactivation (supercoiled HIV-LTR DNA): active | ribosome inactivation [2]: none of these fragments are active | resistance to proteolysis [3]: remained intact even after 24 hr of proteolysis

GLF22: GAP31 Lys-C fragment, 21-22 kDa, residues 11-200 of SEQ ID NO:2
anti-HIV activity (HIV-1): Most of the anti-HIV and anti-tumor activity | anti-tumor activity [1]: Most of the anti-HIV and anti-tumor activity | HIV-integrase inhibition (HIV-1 integrase): active | DNA topological inactivation (supercoiled HIV-LTR DNA): active | ribosome inactivation [2]: none of these fragments are active

GVF0.6: GAP31 V8 C-terminal fragment, residues 196-251 of SEQ ID NO:2 (NKWGKLSFQIRTSGANGMFSEAVELERANGKKYYVTAVDQVKPKIALLKFVDKDPK; listed as Gelonium multiflorum)
anti-HIV activity (HIV-1): neither anti-HIV nor anti-tumor activity | anti-tumor activity [1]: neither anti-HIV nor anti-tumor activity

GLF0.6: GAP31 Lys-C C-terminal fragment, residues 201-251 of SEQ ID NO:2 (LSFQIRTSGANGMFSEAVELERANGKKYYVTAVDQVKPKIALLKFVDKDPK; listed as Gelonium multiflorum)
anti-HIV activity (HIV-1): neither anti-HIV nor anti-tumor activity | anti-HIV activity (HIV-1; listed as peak 3): no activity was found | anti-tumor activity [1]: neither anti-HIV nor anti-tumor activity | anti-tumor activity ([1]; listed as peak 3): no activity was found

GVF26: GAP31 V8 fragment, 25-26 kDa, residues 1-219 of SEQ ID NO:2
HIV-integrase inhibition (HIV-1 integrase): active | DNA topological inactivation (supercoiled HIV-LTR DNA): active | ribosome inactivation [2]: none of these fragments are active

GVF22: GAP31 V8 fragment, 21-22 kDa, residues 1-195 of SEQ ID NO:2
HIV-integrase inhibition (HIV-1 integrase): active | DNA topological inactivation (supercoiled HIV-LTR DNA): active | ribosome inactivation [2]: none of these fragments are active | resistance to proteolysis [3]: remained intact even after 24 hr of proteolysis

B1: MLF0.8: MAP30 Lys-C C-terminal fragment, residues 196-263 of SEQ ID NO:1 (protein, listed as Momordica charantia)
chain: QIFLAQNQGGKFRNPVDLIKPTGERFQVTNVDSDVVKGNIKLLLNSRASTADENFITTMTLLGESVVN
anti-HIV activity (HIV-1): neither anti-HIV nor anti-tumor activity | anti-tumor activity [1]: neither anti-HIV nor anti-tumor activity

B2: MLF25: MAP30 Lys-C fragment, 24-25 kDa, residues 13-232 of SEQ ID NO:1 (protein, listed as Momordica charantia)
chain: TYTKFIEDFRATLPFSHKVYDIPLLYSTISDSRRFILLDLTSYAYETISVAIDVTNVYVVAYRTRDVSYFFKESPPEAYNILFKGTRKITLPYTGNYENLQTAAHKIRENIDLGLPALSSAITTLFYYNAQSAPSALLVLIQTTAEAARFKYIERHVAKYVATNFKPNLAIISLENQWSALSKQIFLAQNQGGKFRNPVDLIKPTGERFQVTNVDSDVVK
HIV-integrase inhibition (HIV-1 integrase): active | DNA topological inactivation (supercoiled HIV-LTR DNA): active | ribosome inactivation [2]: none of these fragments are active | resistance to proteolysis [3]: remained intact even after 24 hr of proteolysis

B3: MVF0.8: MAP30 V8 C-terminal fragment, residues 188-263 of SEQ ID NO:1 (protein, listed as Momordica charantia)
chain: NQWSALSKQIFLAQNQGGKFRNPVDLIKPTGERFQVTNVDSDVVKGNIKLLLNSRASTADENFITTMTLLGESVVN
anti-HIV activity (HIV-1): neither anti-HIV nor anti-tumor activity | anti-tumor activity [1]: neither anti-HIV nor anti-tumor activity

B4: MVF25: MAP30 V8 fragment, 24-25 kDa, residues 1-219 of SEQ ID NO:1 (protein, listed as Momordica charantia)
chain: DVNFDLSTATAKTYTKFIEDFRATLPFSHKVYDIPLLYSTISDSRRFILLDLTSYAYETISVAIDVTNVYVVAYRTRDVSYFFKESPPEAYNILFKGTRKITLPYTGNYENLQTAAHKIRENIDLGLPALSSAITTLFYYNAQSAPSALLVLIQTTAEAARFKYIERHVAKYVATNFKPNLAIISLENQWSALSKQIFLAQNQGGKFRNPVDLIKPTGE
HIV-integrase inhibition (HIV-1 integrase): active | DNA topological inactivation (supercoiled HIV-LTR DNA): active | ribosome inactivation [2]: none of these fragments are active

B5: MVF21: MAP30 V8 fragment, 20-21 kDa, residues 1-187 of SEQ ID NO:1 (protein, listed as Momordica charantia)
chain: DVNFDLSTATAKTYTKFIEDFRATLPFSHKVYDIPLLYSTISDSRRFILLDLTSYAYETISVAIDVTNVYVVAYRTRDVSYFFKESPPEAYNILFKGTRKITLPYTGNYENLQTAAHKIRENIDLGLPALSSAITTLFYYNAQSAPSALLVLIQTTAEAARFKYIERHVAKYVATNFKPNLAIISLE
HIV-integrase inhibition (HIV-1 integrase): active | DNA topological inactivation (supercoiled HIV-LTR DNA): active | ribosome inactivation [2]: none of these fragments are active | resistance to proteolysis [3]: remained intact even after 24 hr of proteolysis

B6: MLF21: MAP30 Lys-C fragment, 20-21 kDa, residues 13-195 of SEQ ID NO:1 (protein, listed as Momordica charantia)
chain: TYTKFIEDFRATLPFSHKVYDIPLLYSTISDSRRFILLDLTSYAYETISVAIDVTNVYVVAYRTRDVSYFFKESPPEAYNILFKGTRKITLPYTGNYENLQTAAHKIRENIDLGLPALSSAITTLFYYNAQSAPSALLVLIQTTAEAARFKYIERHVAKYVATNFKPNLAIISLENQWSALSK
HIV-integrase inhibition (HIV-1 integrase): active | DNA topological inactivation (supercoiled HIV-LTR DNA): active | ribosome inactivation [2]: none of these fragments are active
